Results: the supplement of paper PMC9170038

Tested on: MS2 coat protein
Assay: apparent KD of MS2 coat protein; designed switch direction (-1 OFF switch, 1 ON switch): 1; higher = weaker reporter binding
Summary of the method: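 Designed RNA switches with common flanks were transcribed on Illumina chips by stalled E. coli RNA polymerase and titrated with SNAP-549-labelled MS2 coat protein, from 0.7 or 1.5 nM doubling to 3 µM, in Tris-HCl pH 7.5 buffer with KCl, MgCl2, BSA, DTT, tRNA and Tween-20. Steps lasted 0.8–1.5 h (lowest) to 10–20 min (highest). Titrations ran without input, with 200 uM small-molecule ligand, or with an oligonucleotide input. Normalised cluster fluorescence was curve-fitted, and apparent KD is the per-design median over clusters.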

[1] = Eterna round: R95, input ligand: FMN 200 uM
[2] = Eterna round: R95, input ligand: microRNA oligo, concentration not stated
[3] = Eterna round: R95, input ligand: none
[4] = input ligand: microRNA oligo, concentration not stated

Sequence	apparent KD of MS2 coat protein [1]	apparent KD of MS2 coat protein [2]	apparent KD of MS2 coat protein [3]	apparent KD of MS2 coat protein (input ligand: FMN 200 uM)	apparent KD of MS2 coat protein [4]	apparent KD of MS2 coat protein (input ligand: none)
AACAAUCUAUCUGAGGAUAUCAUGAAAUAAACAUGAGGAUCACCCAUGUGCAGGAAAACUGCAUAUGAGAAGGUAGAUAGAUUGA [salish99_ss2_r3_050] (puzzle: Same State 2)	176 nM	140 nM	218 nM	–	–	–
AACAAUCUAUCUGAGGAUAUCAUGAAAUAAACAUGAGGAUCACCCAUGUGCAGGAAAACUGCAUAUUAGAAGGCAGAUAGAUUGA [salish99_ss2_r3_049] (puzzle: Same State 2)	163 nM	38.8 nM	151 nM	–	–	–
AACAAUCUAUCUGAGGAUAUCAUGAAAUAAACAUGAGGAUCACCCAUGUGCAGGAAAACUUCAUAUGAGAAGGCAGAUAGAUUGA [salish99_ss2_r3_045] (puzzle: Same State 2)	17.5 nM	27.7 nM	26.4 nM	–	–	–
AACAAUCUAUCUGAGGAUAUCAUGAGAAGAACAUGAGGAUCACCCAUGUGCAGGAAAACUGCAUAUGAGAAGGCAGAUAGAUUGG [Mat - Same State 2 - Mod - D18] (puzzle: Same State 2)	52.8 nM	621 nM	1950 nM	–	–	–
AACGGCAGAUGAGGAUAUACUUGCCAUGCGAGCACGCUCGCUACAUGAGGAUCACCCAUGUAUGGGUAGAAGGCAUCAUGAUAC [Eternabot solution 39] (Eterna round: R96, puzzle: Same State NG 2)	–	–	–	89.6 nM	102 nM	243 nM
AAGACAUUUGCUUAGGAUAUACAGGGCUCCACAUGAGGAUCACCCAUGUUAAAAGAGGAGUAAAUGUAGAAGGAAGCCUCCAAUA [Zazaes] (puzzle: Same State 2)	19.1 nM	59.8 nM	66.3 nM	–	–	–
AAGGGAUGAGCGUAGGAUAUAGGAGAAGUGACAUGAGGAUCACCCAUGUAGGAGGAGGGAUGAGACUAGAAGGACGAGGUAGGAG [JR_SS2_Sub060] (puzzle: Same State 2)	43.6 nM	56.7 nM	76.8 nM	–	–	–
AAGUAACAUGAGGAUCACCCAUGUGAGGUGAGCGUAGGAUAUCGAGAAGGAAGGGUGGAGCGAGAAGGACGAGGGA [JR_SS1_Sub0101] (puzzle: Same State 1)	565 nM	463 nM	389 nM	–	–	–
AAUAUACAUGAGGAUCACCCAUGUUAGUAAAUGACAGGAUAUCGAAUAAAUAAAUAAUAACGAGAAGGGUCUAAUA [JMF's solution 3] (puzzle: Same State 1)	15.9 nM	30.3 nM	20.8 nM	–	–	–
AAUAUUUAUGCAGGAUAUGAUUAACAUGAGGAUCACCCAUGUGGUGUUGUGAGUAAGGAGAGUGAUCAGAAGGGCAUUUUUUUU [JMF's solution 73] (Eterna round: R96, puzzle: Same State NG 2)	–	–	–	379 nM	271 nM	463 nM
AAUCGUUUGAUAGGAUAUCGCUAUACAUGAGGAUCACCCAUGUUUACCACGCUGGUUUUUCAUACCGAGAAGGAUUCUGAUGAC [salish99_SSNG02_r04_002] (Eterna round: R96, puzzle: Same State NG 2)	–	–	–	26.2 nM	22.6 nM	29.8 nM
AAUCGUUUGAUAGGAUAUCGUUAUACAUGAGGAUCACCCAUGUUUACCACGCUGGUUUUUCGUACCGAGAAGGAUUCUGAUGAU [JL JR sub007 mod 6] (Eterna round: R96, puzzle: Same State NG 2)	–	–	–	30.5 nM	20.2 nM	27.5 nM
AAUUAUUAACAUGAGGAUCACCCAUGUAUUAUUAUUAUUAUUAACAAGCUUUUUCAUGUUAUUAGCUCGUCUUAUAA [Bojan's Design 2] (puzzle: Sensor for hsa-mir-208a version 2)	16.5 nM	31.7 nM	15.4 nM	–	–	–
AAUUGUUUCUGAGGAUAUCAGUAGUAUGCUUUUUGAGAAGGCAGUACAUGAGGAUCACCCAUGUUGUGGUUUGAUAGAAUGAUA [JR_SSNG1_Sub004] (Eterna round: R96, puzzle: Same State NG 1)	–	–	–	–	130 nM	–
ACAAGACAGGGAGGAUAUAGCUGUUCAUCAAAGUUAGAAGGCUCGUACACAUGAGGAUCACCCAUGUUGUCGGCAGUCGACUGA [Eternabot solution 42] (Eterna round: R96, puzzle: Same State NG 1)	–	–	–	7.44 nM	9.67 nM	12.2 nM
ACAAGCUUUUUGCUCGUCUUCAUGUAAUAACAUGAGGAUCACCCAUGUAACGUUAAAAGUCUCUCGAUAAUAGCUCA [Meechl hsa-mir-208a 1] (puzzle: Sensor for hsa-mir-208a)	132 nM	33.6 nM	348 nM	–	–	–
